# Where no end group is shown, it is not given here. [ ]: non-standard residue; d: D form.
# B1: WKYMVm (peptide)
# peptide: WKYMV[dM]
# notes: the last residue is the D form; the bought peptide is probably also an amide (surmise); source: bought: Tocris
# How the values were obtained:
# [1] = tested on: FPR1; conditions: at 100 nM; cited from earlier work
# [2] = biological target: T1, FLAG-Mm_Fpr2 C-terminally fused to Renilla Luciferase 8 (mouse, UniProt O88536 1-351); assay: cell-based or functional assay
# T1 sequence (looked up): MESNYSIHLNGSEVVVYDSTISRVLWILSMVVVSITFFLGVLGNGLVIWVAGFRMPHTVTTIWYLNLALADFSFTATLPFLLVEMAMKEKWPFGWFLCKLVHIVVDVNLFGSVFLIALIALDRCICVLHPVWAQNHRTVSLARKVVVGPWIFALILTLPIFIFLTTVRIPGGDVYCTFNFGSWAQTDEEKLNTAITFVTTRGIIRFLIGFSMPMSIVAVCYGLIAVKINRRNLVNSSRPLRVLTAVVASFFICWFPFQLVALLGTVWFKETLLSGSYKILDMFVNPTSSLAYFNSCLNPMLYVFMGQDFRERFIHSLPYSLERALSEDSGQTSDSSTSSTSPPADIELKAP
# [3] = biological target: T2, FLAG-tagged mouse Fpr1 (Mm_Fpr1) (mouse, UniProt P33766 1-364); assay: cell-based or functional assay
# T2 sequence (looked up): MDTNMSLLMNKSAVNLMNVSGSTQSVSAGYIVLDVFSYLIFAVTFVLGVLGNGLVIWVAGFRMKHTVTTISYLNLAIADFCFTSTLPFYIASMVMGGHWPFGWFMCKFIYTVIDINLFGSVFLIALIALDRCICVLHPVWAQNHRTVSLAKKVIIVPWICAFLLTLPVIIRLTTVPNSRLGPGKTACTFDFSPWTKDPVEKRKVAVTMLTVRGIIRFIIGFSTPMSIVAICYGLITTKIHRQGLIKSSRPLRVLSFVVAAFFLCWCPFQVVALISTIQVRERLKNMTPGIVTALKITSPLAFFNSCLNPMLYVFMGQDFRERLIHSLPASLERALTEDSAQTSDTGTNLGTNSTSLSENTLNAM
# [4] = biological target: T3, FLAG-tagged mouse Fpr2 (Mm_Fpr2) (mouse, UniProt O88536 1-351); assay: cell-based or functional assay
# T3 sequence (looked up): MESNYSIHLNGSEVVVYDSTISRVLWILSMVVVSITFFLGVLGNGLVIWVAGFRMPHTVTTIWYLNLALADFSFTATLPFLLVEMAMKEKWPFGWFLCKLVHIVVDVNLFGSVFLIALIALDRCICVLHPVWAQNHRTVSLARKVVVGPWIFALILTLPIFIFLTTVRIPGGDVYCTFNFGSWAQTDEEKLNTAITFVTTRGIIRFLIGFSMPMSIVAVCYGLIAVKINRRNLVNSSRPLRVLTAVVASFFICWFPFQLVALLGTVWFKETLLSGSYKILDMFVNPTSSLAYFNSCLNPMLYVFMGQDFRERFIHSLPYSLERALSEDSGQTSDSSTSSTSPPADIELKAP
# [5] = biological target: T4, FLAG-tagged human FPR1 (Hs_FPR1) (human, UniProt P21462 1-350); assay: cell-based or functional assay
# T4 sequence (looked up): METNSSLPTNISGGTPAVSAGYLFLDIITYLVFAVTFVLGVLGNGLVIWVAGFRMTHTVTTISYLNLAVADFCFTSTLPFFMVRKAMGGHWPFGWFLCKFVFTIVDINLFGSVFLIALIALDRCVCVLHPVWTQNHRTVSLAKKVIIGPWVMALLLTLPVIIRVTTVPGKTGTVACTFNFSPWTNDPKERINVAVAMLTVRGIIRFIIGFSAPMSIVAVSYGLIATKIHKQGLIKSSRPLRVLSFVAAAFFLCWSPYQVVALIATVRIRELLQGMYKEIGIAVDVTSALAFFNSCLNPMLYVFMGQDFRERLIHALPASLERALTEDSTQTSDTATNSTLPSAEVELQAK
# [6] = biological target: T5, FLAG-tagged human FPR2 (Hs_FPR2) (human, UniProt P25090 1-351); assay: cell-based or functional assay
# T5 sequence (looked up): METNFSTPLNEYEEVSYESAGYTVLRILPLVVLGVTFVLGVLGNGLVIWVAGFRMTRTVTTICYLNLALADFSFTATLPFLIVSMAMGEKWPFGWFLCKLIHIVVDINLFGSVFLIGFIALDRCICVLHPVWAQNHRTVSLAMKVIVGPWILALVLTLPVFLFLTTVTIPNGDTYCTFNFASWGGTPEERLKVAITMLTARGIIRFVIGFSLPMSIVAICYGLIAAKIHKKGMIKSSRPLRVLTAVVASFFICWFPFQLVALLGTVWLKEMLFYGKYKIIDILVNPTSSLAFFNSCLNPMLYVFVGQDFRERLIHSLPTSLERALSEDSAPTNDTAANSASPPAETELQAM
# [7] = biological target: T6, FLAG-Hs_FPR1 C-terminally fused to Renilla Luciferase 8 (human, UniProt P21462 1-350); assay: cell-based or functional assay
# T6 sequence (looked up): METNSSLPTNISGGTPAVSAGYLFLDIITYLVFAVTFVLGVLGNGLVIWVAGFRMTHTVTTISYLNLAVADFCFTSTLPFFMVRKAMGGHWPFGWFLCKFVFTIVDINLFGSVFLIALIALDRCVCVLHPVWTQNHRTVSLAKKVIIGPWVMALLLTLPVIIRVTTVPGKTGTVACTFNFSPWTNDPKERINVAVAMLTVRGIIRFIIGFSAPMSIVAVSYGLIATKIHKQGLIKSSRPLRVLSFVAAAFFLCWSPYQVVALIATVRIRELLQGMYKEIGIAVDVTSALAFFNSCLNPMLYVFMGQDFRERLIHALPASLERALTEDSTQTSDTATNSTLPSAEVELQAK
# [8] = biological target: T7, FLAG-Hs_FPR2 C-terminally fused to Renilla Luciferase 8 (human, UniProt P25090 1-351); assay: cell-based or functional assay
# T7 sequence (looked up): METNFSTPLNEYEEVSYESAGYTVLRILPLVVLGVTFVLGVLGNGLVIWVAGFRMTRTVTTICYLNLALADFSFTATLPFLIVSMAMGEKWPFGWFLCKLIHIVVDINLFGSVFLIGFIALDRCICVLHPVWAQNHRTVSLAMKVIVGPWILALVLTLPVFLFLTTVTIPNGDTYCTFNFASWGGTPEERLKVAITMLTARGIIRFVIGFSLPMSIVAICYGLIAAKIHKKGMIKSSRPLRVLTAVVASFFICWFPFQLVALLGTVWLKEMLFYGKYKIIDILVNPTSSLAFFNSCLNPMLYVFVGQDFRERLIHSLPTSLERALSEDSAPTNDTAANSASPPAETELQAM
# [9] = biological target: T8, FLAG-Mm_Fpr1 C-terminally fused to Renilla Luciferase 8 (mouse, UniProt P33766 1-364); assay: cell-based or functional assay
# T8 sequence (looked up): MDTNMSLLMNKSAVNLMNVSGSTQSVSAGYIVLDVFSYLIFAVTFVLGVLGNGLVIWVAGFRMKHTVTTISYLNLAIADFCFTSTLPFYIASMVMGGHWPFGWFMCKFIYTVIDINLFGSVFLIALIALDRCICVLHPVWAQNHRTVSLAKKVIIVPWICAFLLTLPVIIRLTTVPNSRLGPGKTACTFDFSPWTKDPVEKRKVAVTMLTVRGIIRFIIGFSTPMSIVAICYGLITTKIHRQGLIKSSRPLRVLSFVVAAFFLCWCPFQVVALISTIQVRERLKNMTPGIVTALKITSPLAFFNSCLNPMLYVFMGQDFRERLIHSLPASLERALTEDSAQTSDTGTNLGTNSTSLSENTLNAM
# [10] = biological target: T1, FLAG-Mm_Fpr2 C-terminally fused to …; assay: cell-based or functional assay; remark: listed apart in the source
# [11] = biological target: T2, FLAG-tagged mouse Fpr1 (Mm_Fpr1); assay: cell-based or functional assay; remark: listed apart in the source
# [12] = biological target: T3, FLAG-tagged mouse Fpr2 (Mm_Fpr2); assay: cell-based or functional assay; remark: listed apart in the source
# [13] = biological target: T4, FLAG-tagged human FPR1 (Hs_FPR1); assay: cell-based or functional assay; remark: listed apart in the source
# [14] = biological target: T5, FLAG-tagged human FPR2 (Hs_FPR2); assay: cell-based or functional assay; remark: listed apart in the source
# [15] = biological target: T2, FLAG-tagged mouse Fpr1 (Mm_Fpr1); assay: flow cytometry on cells; competition binding: HEK293 cells stably expressing the receptor, lifted in PBS, on ice 90 min with 10 nM K(5/6-FAM)-WKYMVm and increasing unlabeled ligand; mean fluorescence of 5000 cells as % of that without competitor; One site-Fit logIC50
molecule,measurement,setting,value
Cc1cccc(-c2oc(C)nc2C(=O)Nc2cnn(Cc3nc(C(C)(F)F)co3)n2)c1 [ACT-389949],"arrestin recruitment to FPR1, Pathhunter",[1],neither WKYMVM nor ACT-389949 resulted in recruitment
B1,BRET of receptor-RLuc8 with Venus-mGsi: Emax (% of 1 μM WKYMVm),[2],103%
same,BRET of receptor-RLuc8 with Venus-mGsi: Log EC50 (M),[2],-7.51 log M
same,ERK1/2 phosphorylation (Western blot): Emax (% of 1 μM WKYMVm),[3],102%
same,ERK1/2 phosphorylation (Western blot): Log EC50 (M),[3],-8.43 log M
same,ERK1/2 phosphorylation (Western blot): Emax (% of 1 μM WKYMVm),[4],118%
same,ERK1/2 phosphorylation (Western blot): Log EC50 (M),[4],-9.06 log M
same,ERK1/2 phosphorylation (Western blot): Emax (% of 1 μM WKYMVm),[5],104%
same,ERK1/2 phosphorylation (Western blot): Log EC50 (M),[5],-9.1 log M
same,ERK1/2 phosphorylation (Western blot): Emax (% of 1 μM WKYMVm),[6],93.8%
same,BRET of receptor-RLuc8 with Arrestin 3-YFP: Emax (% of 1 μM WKYMVm),[7],105%
same,BRET of receptor-RLuc8 with Arrestin 3-YFP: Log EC50 (M),[7],-7.3 log M
same,BRET of receptor-RLuc8 with Arrestin 3-YFP: Emax (% of 1 μM WKYMVm),[8],102%
same,BRET of receptor-RLuc8 with Arrestin 3-YFP: Log EC50 (M),[8],-8.13 log M
same,BRET of receptor-RLuc8 with Arrestin 3-YFP: Emax (% of 1 μM WKYMVm),[9],112%
same,BRET of receptor-RLuc8 with Arrestin 3-YFP: Log EC50 (M),[9],-6.8 log M
same,BRET of receptor-RLuc8 with Arrestin 3-YFP: Emax (% of 1 μM WKYMVm),[10],101%
same,BRET of receptor-RLuc8 with Arrestin 3-YFP: Log EC50 (M),[10],-7.46 log M
same,receptor internalization (flow cytometry): Emax (% of 1 μM WKYMVm),[11],108%
same,receptor internalization (flow cytometry): Log EC50 (M),[11],-8.01 log M
same,receptor internalization (flow cytometry): Emax (% of 1 μM WKYMVm),[12],102%
same,receptor internalization (flow cytometry): Log EC50 (M),[12],-7.66 log M
same,receptor internalization (flow cytometry): Emax (% of 1 μM WKYMVm),[13],106%
same,receptor internalization (flow cytometry): Log EC50 (M),[13],-7.49 log M
same,receptor internalization (flow cytometry): Emax (% of 1 μM WKYMVm),[14],97.5%
same,receptor internalization (flow cytometry): Log EC50 (M),[14],-8 log M
same,Log IC50,[15],-6.79 log M
same,Max Comp (%),[15],97%

# From article PMC12881670, “Investigation into ligand selectivity and bias at the formyl peptide receptor family” (The Journal of Pharmacology and Experimental Therapeutics, 2025)
